Experiments:
[1] = target: Sialic acid-binding immunoglobulin-like lectin 8 (SIGLEC-8), antigen of the Carterra SPR studies (UniProt Q9NYZ4 17-363, limits assumed); assay: Carterra SPR
Method in brief: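 On a Carterra instrument, surface plasmon resonance was used to measure how antibodies bind SIGLEC-8, with rate constants and dissociation constants as read-outs. The antibodies were taken from synthetic libraries by bead-based panning and clonal ELISA screening, then expressed and purified.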

[2] = target: T1, SIGLEC-8 transiently expressed on cells (UniProt Q9NYZ4 17-499, limits assumed); assay: cell binding titration, transient SIGLEC-8 line
T1 construct: whole, on cells; Two cassettes are described (P2A mVenus and direct mVenus fusion); also called the transient line; pTT5-SIGLEC-8 P2A mVenus
T1 sequence (Q9NYZ4 17-499 limits assumed): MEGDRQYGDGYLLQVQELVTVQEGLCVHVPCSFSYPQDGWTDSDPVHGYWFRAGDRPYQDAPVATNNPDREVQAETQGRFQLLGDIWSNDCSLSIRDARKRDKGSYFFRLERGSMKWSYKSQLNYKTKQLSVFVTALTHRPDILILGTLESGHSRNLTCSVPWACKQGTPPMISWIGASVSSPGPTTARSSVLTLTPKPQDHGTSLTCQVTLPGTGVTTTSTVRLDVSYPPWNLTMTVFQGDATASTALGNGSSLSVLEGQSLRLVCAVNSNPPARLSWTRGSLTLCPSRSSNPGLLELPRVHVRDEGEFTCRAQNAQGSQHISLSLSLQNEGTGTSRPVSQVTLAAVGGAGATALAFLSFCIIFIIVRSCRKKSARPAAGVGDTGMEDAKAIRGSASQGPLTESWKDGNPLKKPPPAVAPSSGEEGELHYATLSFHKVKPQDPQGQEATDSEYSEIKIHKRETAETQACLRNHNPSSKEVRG

Sequence of Sialic acid-binding immunoglobulin-like lectin 8 (SIGLEC-8), antigen of the Carterra SPR studies (Q9NYZ4 17-363 limits assumed): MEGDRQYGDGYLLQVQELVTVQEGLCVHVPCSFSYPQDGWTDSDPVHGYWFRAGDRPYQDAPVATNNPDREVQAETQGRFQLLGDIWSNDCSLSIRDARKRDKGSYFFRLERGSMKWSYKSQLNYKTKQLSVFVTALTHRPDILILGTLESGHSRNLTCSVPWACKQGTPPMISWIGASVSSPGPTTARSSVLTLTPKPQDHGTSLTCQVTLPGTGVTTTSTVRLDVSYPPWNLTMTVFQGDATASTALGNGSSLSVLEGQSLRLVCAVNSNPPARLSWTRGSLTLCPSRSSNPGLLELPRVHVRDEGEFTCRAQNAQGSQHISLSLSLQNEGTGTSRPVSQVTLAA

Binder | Kd [1] | EC50 [2] | binding result [1]
SIGLEC-8-15 (antibody, human IgG1, kappa, V domains shown, tested as expressed and purified mAb) VH: EVQLLESGGGLVQPGGSLRLSCAASGFTFSTYTMNWVRQAPGKGLEWVSVISGSGDDTYYADSVKGRFTISRDNSKNTLYLQMNSLRAEDTAVYYCTRAGEQHHYYGMDVWGQGTLVTVSS VL: DIQMTQSPSSLSASVGDRVTITCRASQTISTSLNWYQQKPGKAPKLLIYGASTLQRGVPSRFSGSGSGTDFTLTISSLQPEDFATYYCRQSYSTPITFGGGTKVEIKR | 2.57 nM | – | –
SIGLEC-8-2 (antibody, human IgG1, kappa, V domains shown, tested as expressed and purified mAb) VH: EVQLLESGGGLVQPGGSLRLSCAASGFTFSKHAMSWVRQAPGKGLEWVSGISGSGARTYYADSVKGRFTISRDNSKNTLYLQMNSLRAEDTAVYYCARQSRGGSLGMDVWGQGTLVTVSS VL: DIQMTQSPSSLSASVGDRVTITCRASQRISSYLNWYQQKPGKAPKLLIYGASILQTGVPSRFSGSGSGTDFTLTINSLQPEDFATYYCQESYSTPFTFGGGTKVEIKR | 160000 nM | 8.28 nM | –
SIGLEC-8-23 (antibody, human IgG1, kappa, V domains shown, tested as expressed and purified mAb) VH: EVQLLESGGGLVQPGGSLRLSCAASGLTFSSYAMSWVRQAPGKGLEWVSAISGSGVGTYYADSVKGRFTISRDNSKNTLYLQMNSLRAEDTAVYYCAKHTSSSWYPLDYWGQGTLVTVSS VL: DIQMTQSPSSLSASVGDRVTITCRSSQSITTYLNWYQQKPGKAPKLLIYAASNLYSGVPSRFSGSGSGTDFTLTISSLQPEDFATYYCQQSHTTPLTFGGGTKVEIKR | 10.1 nM | 0.855 nM | –
SIGLEC-8-25 (antibody, human IgG1, kappa, V domains shown, tested as expressed and purified mAb) VH: EVQLLESGGGLVQPGGSLRLSCAASGFTFSKYAMDWVRQAPGKGLEWVSDISGSGGTTYYADSVKGRFTISRDNSKNTLYLQMNSLRAEDTAVYYCVRAGLVGYDFDIWGQGTLVTVSS VL: DIQMTQSPSSLSASVGDRVTITCRASESISSYLNWYQQKPGKAPKLLIYGASILQGGVPSRFSGSGSGTDFTLTISSLQPEDFATYYCQQSYSFPITFGGGTKVEIKR | 50.6 nM | 7.63 nM | –
SIGLEC-8-28 (antibody, human IgG1, kappa, V domains shown, tested as expressed and purified mAb) VH: EVQLLESGGGLVQPGGSLRLSCAASGSPFSNYAMSWVRQAPGKGLEWVSSISGGGASTYYADSVKGRFTISRDNSKNTLYLQMNSLRAEDTAVYYCAREKDNSWFGMDVWGQGTLVTVSS VL: DIQMTQSPSSLSASVGDRVTITCRASQSIDRYLNWYQQKPGKAPKLLIYGASTLQTGVPSRFSGSGSGTDFTLTISSLQPEDFATYYCQQTYSTPITFGGGTKVEIKR | 3.49 nM | 1.02 nM | –
SIGLEC-8-3 (antibody, human IgG1, kappa, V domains shown, tested as expressed and purified mAb) VH: EVQLLESGGGLVQPGGSLRLSCAASGFTFSTYDMTWVRQAPGKGLEWVSSIGGSGRSTYYADSVKGRFTISRDNSKNTLYLQMNSLRAEDTAVYYCARGSASAWFAFDYWGQGTLVTVSS VL: DIQMTQSPSSLSASVGDRVTITCRASQSIARYLNWYQQKPGKAPKLLIYGASDLQSGVPSRFSGSGSGTDFTLTISSLQPEDFATYYCQQSYRTSYTFGGGTKVEIKR | 242 nM | 6.46 nM | –
SIGLEC-8-39 (antibody, human IgG1, kappa, V domains shown, tested as expressed and purified mAb) VH: EVQLLESGGGLVQPGGSLRLSCAASGFTFSRYGMSWVRQAPGKGLEWVSATSGSGGTTYYADSVKGRFTISRDNSKNTLYLQMNSLRAEDTAVYYCARVGGSGWYPNDYWGQGTLVTVSS VL: DIQMTQSPSSLSASVGDRVTITCRASQSVSRFLNWYQQKPGKAPKLLIYGASTLQTGVPSRFSGSGSGTDFTLTISSLQPEDFATYYCQQSYTTPHTFGGGTKVEIKR | 159 nM | 4.47 nM | –
SIGLEC-8-46 (antibody, human IgG1, kappa, V domains shown, tested as expressed and purified mAb) VH: EVQLLESGGGLVQPGGSLRLSCAASGLTFSRYAMSWVRQAPGKGLEWVSTVSGSGVSTYYADSVKGRFTISRDNSKNTLYLQMNSLRAEDTAVYYCARARGGSSRYYYGMDVWGQGTLVTVSS VL: DIQMTQSPSSLSASVGDRVTITCRASQTIDKYLNWYQQKPGKAPKLLIYGASRLQNGVPSRFSGSGSGTDFTLTISSLQPEDFATYYCQQSYTTPTFGGGTKVEIKR | 152000 nM | 32.8 nM | –

Next, values leading:

Kd [1] | EC50 [2] | binding result [1] | Binder
1.21 nM | 1.15 nM | – | SIGLEC-8-50 (antibody, human IgG1, kappa, V domains shown, tested as expressed and purified mAb) VH: EVQLLESGGGLVQPGGSLRLSCAASGFTLSNYAMTWVRQAPGKGLEWVSTVSGSGASTYYADSVKGRFTISRDNSKNTLYLQMNSLRAEDTAVYYCAREDSGKYLSLDYWGQGTLVTVSS VL: DIQMTQSPSSLSASVGDRVTITCRASQSIGSYLNWYQQKPGKAPKLLIYSASSLQTGVPSRFSGSGSGTDFTLTISSLQPEDFATYYCQQTYNTPITFGGGTKVEIKR
4.68 nM | 2.43 nM | – | SIGLEC-8-6 (antibody, human IgG1, kappa, V domains shown, tested as expressed and purified mAb) VH: EVQLLESGGGLVQPGGSLRLSCAASGFSFSSYGMSWVRQAPGKGLEWVSTISGSGGGTYYADSVKGRFTISRDNSKNTLYLQMNSLRAEDTAVYYCAREESGKYLSLDHWGQGTLVTVSS VL: DIQMTQSPSSLSASVGDRVTITCRASQTIRSYLNWYQQKPGKAPKLLIYAASSLHTGVPSRFSGSGSGTDFTLTISSLQPEDFATYYCQQSYTTPITFGGGTKVEIKR
8080 nM | 1590 nM | – | SIGLEC-8-9 (antibody, human IgG1, kappa, V domains shown, tested as expressed and purified mAb) VH: not shown VL: DIQMTQSPSSLSASVGDRVTITCRTSQTISTYLNWYQQKPGKAPKLLIYDASDLQSGVPSRFSGSGSGTDFTLTISSLQPEDFATYYCQQNYITPNTFGGGTKVEIKR
– | 50.7 nM | no binding | SIGLEC-8-13 (antibody, human IgG1, kappa, V domains shown, tested as expressed and purified mAb) VH: EVQLLESGGGLVQPGGSLRLSCAASGFTFSSYDMNWVRQAPGKGLEWVSAISGSGVGTYYADSVKGRFTISRDNSKNTLYLQMNSLRAEDTAVYYCSKDVRWSPGGMDVWGQGTLVTVSS VL: DIQMTQSPSSLSASVGDRVTITCRASQSVSIYLNWYQQKPGKAPKLLIYATSNLHSGVPSRFSGSGSGTDFTLTISSLQPEDFATYYCQQSHSTPYTFGGGTKVEIKR
65.4 nM | 20.8 nM | – | SIGLEC-8-14 (antibody, human IgG1, kappa, V domains shown, tested as expressed and purified mAb) VH: EVQLLESGGGLVQPGGSLRLSCAASGFSFSNHAMTWVRQAPGKGLEWVSGISGSSGSTYYADSVKGRFTISRDNSKNTLYLQMNSLRAEDTAVYYCAREGRVAAYFDSWGQGTLVTVSS VL: DIQMTQSPSSLSASVGDRVTITCRASQGISGYLNWYQQKPGKAPKLLIYGASRLQNGVPSRFSGSGSGTDFTLTISSLQPEDFATYYCQQSYTTPITFGGGTKVEIKR
2.02 nM | 2.87 nM | – | SIGLEC-8-16 (antibody, human IgG1, kappa, V domains shown, tested as expressed and purified mAb) VH: EVQLLESGGGLVQPGGSLRLSCAASGFTFSDYGMSWVRQAPGKGLEWVLAISGSGATTYYADSVKGRFTISRDNSKNTLYLQMDSLRAEDTAVYYCAREGGSTYYSLDYWGQGTLVTVSS VL: DIQMTQSPSSLSASVGDRVTITCRTSQSIGSYLNWYQQKPGKAPKLLIYATSNLHSGVPSRFSGSGSGTDFTLTISSLQPEDFATYYCQQSYKTPYTFGGGTKVEIKR
326 nM | 355 nM | – | SIGLEC-8-29 (antibody, human IgG1, kappa, V domains shown, tested as expressed and purified mAb) VH: EVQLLESGGGLVQPGGSLRLSCAASGFTFSRHAMTWVRQAPGKGLEWVSAISSSGDNTYYVDSVKGRYTISRDNSKNTLYLQMNSLRAEDTAVYYCARIHRNGHAFDIWGQGTLVTVSS VL: DIQMTQSPSSLSASVGDRVTITCRASQSIHTYLNWYQQKPGKAPKLLIYGASTLRSGVPSRFSGSGSGTDFTLTISSLQPEDFATYYCQQSYSTPLLTFGGGTKVEIKR
2.5 nM | 133 nM | – | SIGLEC-8-33 (antibody, human IgG1, kappa, V domains shown, tested as expressed and purified mAb) VH: EVQLLESGGGLVQPGGSLRLSCAASGFAFSDYAMSWVRQAPGKGLEWVSAITGSGDYTYYADSVKGRFTISRDNSKNTLYLQMNSLRAEDTAVYYCARDTGGMDVWGQGTLVTVSS VL: DIQMTQSTSSLSASVGDRVTITCRASQSIHSYLNWYQQKPGKAPILIYAASSLERGVPSRFSGSGSGTDFTLTISSLQPEDFATYYCQQSYITPYSFGGGTKVEIKR
46200 nM | 10.6 nM | – | SIGLEC-8-38 (antibody, human IgG1, kappa, V domains shown, tested as expressed and purified mAb) VH: EVQLLESGGGLVQPGGSLRLSCAASGFTFSPYAMSWVRQAPGKGLEWVSGIGGSGGSTYYADSVKGRFTISRDNSKNTLYLQMNSLRAEDTAVYYCARDYGGYYFDYWGQGTLVTVSS VL: DIQMTQSPSSLSASVGDRVTITCRASQYISNYLNWYQQKPGKAPKLLIYATSTLESGVPSRFSGSGSGTDFTLTISSLQPEDFATYYCQQGYSVPWTFGGGTKVEIKR
10 nM | – | – | SIGLEC-8-51 (antibody, human IgG1, kappa, V domains shown, tested as expressed and purified mAb) VH: EVQLLESGGGLVQPGGSLRLSCAASGFTFPRYGMSWVRQAPGKGLEWVTATSGSGGTTYYADSVKGRFTISRDNSKNTLYLQMNSLRAEDTAVYYCARDESSGWYPKDYWGQGTLVTVSS VL: DIQMTQSPSSLSASVGDRVTITCRASQSVSRFLNWYQQKPGKAPKLLIYGASNLEGGVPSRFSGSGSGTDFTLTISSLQPEDFATYYCQQSYTTPHTFGGGTKVEIKR
32.7 nM | 1.88 nM | – | SIGLEC-8-47 (antibody, human IgG1, kappa, V domains shown, tested as expressed and purified mAb) VH: EVQLLESGGGLVQPGGSLRLSCAASGFTFSTHAMSWVRQAPGKGLEWVSTISGSGDITYYADSVKGRFTISRDNSKNTLYLQMNSLRAEDTAVYYCARQSRGGSLGMDVWGQGTLVTVSS VL: DIQMTQSPSSLSASVGDRVTITCRASQTISRYLNWYQQKPGKAPKLLIYAASNLYSGVPSRFSGSGSGTDFTLTISSLQPEDFATYYCQQSFATPYTFGGGTKVEIKR
88.8 nM | 1.4 nM | – | SIGLEC-8-49 (antibody, human IgG1, kappa, V domains shown, tested as expressed and purified mAb) VH: EVQLLESGGGLVQPGGSLRLSCAASGFTFSTYAMHWVRQAPGKGLEWVSTISASGGSTYYADSVKGRFTISRDNSKNTLYLQMNSLRAEDTAVYYCAKSGGADYYYYGMDVWGQGTLVTVSS VL: DIQMTQSPSSLSASVGDRVTITCRASQSIGYYLNWYQQKPGKAPKLLIYGTSSLQSGVPSRFSGSGSGTDFTLTISSLQPEDFATYYCQQSYSTPLNFGGGTKVEIKR
